Source: IntAct's records for PubMed 20126259

B1: Serine/threonine-protein kinase RAD53 (Saccharomyces cerevisiae), P22216 (parent)
chain: MENITQPTQQSTQATQRFLIEKFSQEQIGENIVCRVICTTGQIPIRDLSADISQVLKEKRSIKKVWTFGRNPACDYHLGNISRLSNKHFQILLGEDGNLLLNDISTNGTWLNGQKVEKNSNQLLSQGDEITVGVGVESDILSLVIFINDKFKQCLEQNKVDRIRSNLKNTSKIASPGLTSSTASSMVANKTGIFKDFSIIDEVVGQGAFATVKKAIERTTGKTFAVKIISKRKVIGNMDGVTRELEVLQKLNHPRIVRLKGFYEDTESYYMVMEFVSGGDLMDFVAAHGAVGEDAGREISRQILTAIKYIHSMGISHRDLKPDNILIEQDDPVLVKITDFGLAKVQGNGSFMKTFCGTLAYVAPEVIRGKDTSVSPDEYEERNEYSSLVDMWSMGCLVYVILTGHLPFSGSTQDQLYKQIGRGSYHEGPLKDFRISEEARDFIDSLLQVDPNNRSTAAKALNHPWIKMSPLGSQSYGDFSQISLSQSLSQQKLLENMDDAQYEFVKAQRKLQMEQQLQEQDQEDQDGKIQGFKIPAHAPIRYTQPKSIEAETREQKLLHSNNTENVKSSKKKGNGRFLTLKPLPDSIIQESLEIQQGVNPFFIGRSEDCNCKIEDNRLSRVHCFIFKKRHAVGKSMYESPAQGLDDIWYCHTGTNVSYLNNNRMIQGTKFLLQDGDEIKIIWDKNNKFVIGFKVEINDTTGLFNEGLGMLQEQRVVLKQTAEEKDLVKKLTQMMAAQRANQPSASSSSMSAKKPPVSDTNNNGNNSVLNDLVESPINANTGNILKRIHSVSLSQSQIDPSKKVKRAKLDQTSKGPENLQFS
partner: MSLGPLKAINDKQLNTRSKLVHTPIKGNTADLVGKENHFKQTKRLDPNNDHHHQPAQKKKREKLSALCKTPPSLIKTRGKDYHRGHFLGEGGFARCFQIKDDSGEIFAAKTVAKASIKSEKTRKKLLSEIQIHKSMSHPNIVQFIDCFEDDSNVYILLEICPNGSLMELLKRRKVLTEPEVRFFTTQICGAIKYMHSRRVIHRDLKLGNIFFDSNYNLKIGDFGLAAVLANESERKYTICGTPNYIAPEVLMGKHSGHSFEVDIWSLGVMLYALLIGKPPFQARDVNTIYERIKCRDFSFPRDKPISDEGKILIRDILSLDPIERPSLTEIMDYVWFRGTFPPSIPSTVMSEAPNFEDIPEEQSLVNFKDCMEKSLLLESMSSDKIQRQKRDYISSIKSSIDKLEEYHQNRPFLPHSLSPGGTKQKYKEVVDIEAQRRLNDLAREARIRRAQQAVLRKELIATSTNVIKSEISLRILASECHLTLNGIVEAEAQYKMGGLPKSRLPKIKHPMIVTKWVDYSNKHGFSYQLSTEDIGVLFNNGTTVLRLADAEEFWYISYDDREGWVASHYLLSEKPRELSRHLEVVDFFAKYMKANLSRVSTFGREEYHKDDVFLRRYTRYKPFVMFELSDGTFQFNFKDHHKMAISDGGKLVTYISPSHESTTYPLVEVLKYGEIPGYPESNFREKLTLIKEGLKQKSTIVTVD

Variants of: B1
Settings: with cdc5_yeast CDC5, P32562

Row | Variant | effect of a mutation on the interaction
1 | R70A;R605A | disrupting interaction
